Experimental findings from paper PMC4030946, “Enantiocomplementary Yarrowia lipolytica Oxidoreductases: Alcohol Dehydrogenase 2 and Short Chain Dehydrogenase/Reductase” (Biomolecules, 2013) are described below.

Usually Km stands for the substrate concentration at which the rate is half of its maximum. Broadly, the kcat is the maximal rate divided by the concentration of active sites. The term kcat/Km denotes the turnover number divided by the Michaelis constant.

Series [1] concerns the target T1, YlSDR (Yarrowia lipolytica, UniProt Q6CEE9).
T1 construct: gene YALI0B16192g; full length, N-terminal His-tag (vector pK470), E. coli BL21 (DE3) Gold, purified
T1 sequence (Q6CEE9 1-278): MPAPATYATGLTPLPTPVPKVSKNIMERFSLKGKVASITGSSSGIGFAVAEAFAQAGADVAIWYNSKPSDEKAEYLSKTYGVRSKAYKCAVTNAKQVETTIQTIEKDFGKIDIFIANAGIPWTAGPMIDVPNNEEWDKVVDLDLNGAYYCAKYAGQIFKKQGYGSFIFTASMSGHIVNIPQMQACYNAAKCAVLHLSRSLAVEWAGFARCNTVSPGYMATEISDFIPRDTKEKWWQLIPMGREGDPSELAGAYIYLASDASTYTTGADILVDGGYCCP
The experiment in a line: chiral GC of product after acetylation. It is filed as biochemical. The following applies: reduction to (R)-2-octanol; NADPH 11 mM; citrate 50 mM, pH 5.0, 28 °C; Tween 20.

Substrate in series [2]: CCCCCCC(C)=O
The experiment in a line: purified protein. It is filed as biochemical, Yarrowia lipolytica. The following applies: reduction, NADH co-substrate, potassium phosphate 50 mM, 40 mM KCl, pH 7.0, 28 °C, Tween 20.

Substrate in series [3]: CCCCCC[C@H](C)O
In words: purified protein. The class given is biochemical, Yarrowia lipolytica. The note with it: oxidation, NAD+ co-substrate, potassium phosphate 50 mM, 40 mM KCl, pH 8.5, 28 °C, Tween 20.

Substrate in series [4]: NC(=O)c1ccc[n+]([C@@H]2O[C@H](COP(=O)(O)OP(=O)(O)OC[C@H]3O[C@@H](n4cnc5c(N)ncnc54)[C@H](O)[C@@H]3O)[C@@H](O)[C@H]2O)c1
The experiment in a line: purified protein. It is filed as biochemical, Yarrowia lipolytica. The following applies: oxidation of 10 mM (S)-2-octanol, potassium phosphate 50 mM, 40 mM KCl, pH 8.5, 28 °C, varied: cofactor.

Regarding `CCCCCCC(C)=O` [2-octanone], in series [1], the “chiral GC of product after acetylation” value is “(R)-2-octanol was prepared under the following conditions: purified YlSDR in citrate buffer”.

B1: YlADH2 (Yarrowia lipolytica CLIB122) (protein)
chain: MSAPVIPKTQKGVIFETSGGPLMYKDIPVPVPADDEILVNVKFSGVCHTDLHAWKGDWPLDTKLPLVGGHEGAGVVVAKGKNVDTFEIGDYAGIKWINKACYTCEFCQVAAEPNCPNATMSGYTHDGSFQQYATANAVQAAHIPKNCDLAEIAPILCAGITVYKALKTAAILAGQWVAVTGAGGGLGTLAVQYAKAMGYRVLAIDTGADKEKMCKDLGAEVFIDFAKTKDLVKDVQEATKGGPHAVINVSVSEFAVNQSIEYVRTLGTVVLVGLPAGAVCKSPIFQQVARSIQIKGSYVGNRADSQEAIEFFSRGLVKSPIIIIGLSELEKVYKLMEEGKIAGRYVLDTSK
Take B1: in series [2], the Km is recorded as 5.38 ± 0.76 mM, the kcat is 0.56 ± 0.04 s⁻¹ and the kcat/Km worked out at 100 ± 160 M⁻¹ s⁻¹. For the same molecule, in series [3], the Km came out at 1.42 ± 0.03 mM, the kcat turned out to be 1.05 ± 0.52 s⁻¹ and the catalytic efficiency (kcat/Km) stood at 740 ± 500 M⁻¹ s⁻¹. In series [4], the Km was found to be 17.8 ± 1.26 mM, the kcat was 3.43 ± 0.05 s⁻¹ and the kcat/Km is 190 ± 70 M⁻¹ s⁻¹.
